B1: TPR 5TU (parent)
chain: GGAUCUUCUCGAUCUAACAAAAAAGACAAAUCUGCCACAAAGCUUGAGAGCAUCUUCGGAUGCAGAGGCGGCAGCCUUCGGUGGCGCGAUAGCGCCAACGUUCUCAACUAUGACACGCAAAACGCGUGCUCCGUUGAAUGGAGUUUAUCAUG

This sample holds only a part of the variants without activity. Where only a bound is given, the exact number is not on record here.

The data set covers variants of B1. As to the kind of experiment: polymerase ribozyme fitness, log enrichment relative to wild type (log ratio); higher = more active; in vitro selection for triplet polymerase activity. Put shortly:
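Mutant libraries of each subunit of a heterodimeric triplet polymerase ribozyme were built by PCR and transcribed. Each library went through one round of in vitro selection in triplicate: annealing with biotinylated primer, partner subunit and triplets, frozen incubation at −7 °C, gel excision of extended constructs, streptavidin-bead capture and RT-PCR. Input and output libraries were Illumina-sequenced; only genotypes with ≥10 input reads and ≥1 read per output were kept. Fitness is log2(genotype enrichment/wild-type enrichment), using inverse-variance-weighted replicate averages.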
As for GGAUCUUCUCGAGCUAACAAAAAAGACAAAUCUGCUACAAAGCUUGAGAGCGUCUUCGGAUGCAGAGGCAGCAGCCUUCGGUGUCGCGAUAGCGCCAACGUUCUCAACUAUGACACGCAAAACGCGUGCUCCGUUGAAUGGAGUUUAUCAUG [U13G C36U A52G G70A G84U], the “polymerase ribozyme fitness (log ratio)” value is -0.614.

For GGAUCUUCUCGAUCUAACAAAGAAGACAAAUCUGCCACAAAGCUUGAGAGCAUCUUCGGAUGCAGAGGCGGCAGCCUUCGGUGUCGCGAUAGCGCCAACGUUCUCAACUAUGACACGCAAAACGCGUGCUCCGUUGAAUGGAGUUUAUCAUG [A22G G84U], the “polymerase ribozyme fitness (log ratio)” value is -2.74.

Regarding GGAUCUGCUCGAUGUAACAAAAAAGACAAAUCUGCCACAAAGCUUGAGAGCAUCGUCUGAUGCAGAGGCGGCAGCCUUCCGUGGCGCGAUAGCGCCAACGUUCUCAGCUAUGACACGUAAAACGCGUGCUCCGUUGAAUCGAGUUUAUCAUG [U7G C14G U55G G58U G80C A107G C118U G140C], the “polymerase ribozyme fitness (log ratio)” value is at most -4.2.

Consider GGAUCUUCUCGAUCUAACAAAAAAGACAAAUCUGCCAUAAAGCUUGAGAGCAUCUACGGAUGAAGAGGCGGCAGCCUUCGGUGGCGCGAUAGCGCCAACGUUCUCAACUAUGACACCCAAUACGCGUGCUCCGUUGAAUGGAGUUUAUCAUG [C38U U56A C63A G117C A121U], for which the “polymerase ribozyme fitness (log ratio)” value is 0.398.

In the case of GGAUCUUCUCGAUCUAACAAAAAAGACAAAUCUGCCACAAAGCUUGAGAGCAUCUUCGGAUGCAGAGGCGGCAGCCUUCGGUGGCUCGAUAGCGCCAAUGUUGUCAACUAUGACACGCAAAACGCGUGCUGCGUUGAAUGGAGUUUAUCAUG [G86U C99U C103G C131G], the “polymerase ribozyme fitness (log ratio)” value is at most -4.2.

For the variant GGAUCUUCUCGAUCUAACAAAAAAGACAAAUCUGCCACAAAGCUUGAGCGCAUCUUUGGGUGCAGAGGCGGCAGCUUUCGGUGGCGCGAUAGCGCCAACGUUCUCAACUAUGACACGAAAAACGCGUGCUCCGUUGAAUGGAGUUUAUCAUG [A49C C57U A60G C76U C118A], the “polymerase ribozyme fitness (log ratio)” value was at most -4.2.

As to GGAUCUUCUCGAUCUAACAAAAAAGACAAAUCUGCUACAAAGCUUGAGAGCAUCUUCGGAUGCAGAGGCGGCAGCCUUCGGUGGAGCGAUAGCGCCAACGUUCUCAACUAUGACACGCAAAACGCGUGCUCCGUUGAAUGGAGUUUAUCAUG [C36U C85A], the “polymerase ribozyme fitness (log ratio)” value was -2.75.

Regarding GGAUCUUCUCGAUCUAACAAAAAAGACAAAUCUGCCACAAAGCUUGAGAGCAUCUUCGGAUGCAGAGGCGGCAGCCUUCGGUGGCGCGAUAGCACCAACGUUCUGAACUAUGACACGCAAAACGCGUGCUCCGUUGAAUGGAGUUUAUCAUG [G94A C105G], the “polymerase ribozyme fitness (log ratio)” value is -1.68.

Take GGAUCUUCUCGAUCUAACAAAAAAGACAAAUCUGUCACUAAGCUUGAGAAUAUCUUCGGAUGCAGAGGCGGCAGCCUUCGGUAGCGCGAUAGCGCCAACGUUCUCAACUAUGACACGCAAAAUGCGUGCUCCGUUGAAUGGAGUUUAUCAUG [C35U A39U G50A C51U G83A C123U]: the “polymerase ribozyme fitness (log ratio)” value is at most -4.2.

Consider GGAUCAUCGCGAUGUAACAAAAAAGACAAAUCUGCCACAAAGCUUGAGAGCAUCUUCGGAUGCAGAGGCGGCAGCCUUCGGUCGCGCGAUAGCGCCAACGUUCUCAACUAUUACACGCAAAACGCGUGCUCCGUUCAAUGGAGUUUAUCAUG [U6A U9G C14G G83C G112U G136C], for which the “polymerase ribozyme fitness (log ratio)” value is at most -4.2.

In the case of GGAUCUUCUCGAUCUAACAAAAAAGACAAAUCUGCCACAAAGCUUGAGAGCAUCUUCGGAUGCAGAGGCGGCAGCCUUCGGUGGCGCGAUAGCACCAACGUUCUCAACUAUGACACGCAAAACGUGUGCUCCGUUGAAUGGAGUUUAUCAUG [G94A C125U], the “polymerase ribozyme fitness (log ratio)” value is -1.67.

As for GGAUCUUCUCGAUCUAACAAAAAAGACAAAACUGCCACAAAGCUUGAGAACAUCUUUGGAUGCAGAGGCGGCAGCCUUCGGUGGUGCGAUAGCGCCAACGUUCUCAACUAUGACACGCCAAACGCGUGCUCCGUUGAAUGGAGUUUAUCAUG [U31A G50A C57U C85U A119C], the “polymerase ribozyme fitness (log ratio)” value is -1.76.

For GGAUCUUCUCGAUCUAACAAAAAAGACAAAUCUGCCACAAAGCUUGAGAGCGUCUUCGCCUGCAGAGGCGGCAGCCUUCGGUGGCGCGAUAGCGCGAACGUUCUCAACUAUGACACGCAAAACGCAUGCUCCGUUGAAUGGUGUUUAUCAUG [A52G G59C A60C C96G G126A A142U], the “polymerase ribozyme fitness (log ratio)” value is at most -4.2.

For the variant GGAACUUUUCGAUCUAACAAAAAAGACAAAUCUGCCACAAAGCUUCAGAGCAUCUUCGGAUGCAGAGGCGGCAGCCUUCGGUGGCGCGAUAGAGCCAACAUUCUCAACUAUGACACGUAAAACGCGUGCUCCGUUGAAUGGAGUUUAUCAUG [U4A C8U G46C C93A G100A C118U], the “polymerase ribozyme fitness (log ratio)” value was at most -4.2.

As for GGAUCUUCUCGAUCUAACAAAAAAGACAAAUCUGCCACAAAGCUUGAGAGCAUUUUCGGAUGCAGAGGCGGCAGCCUUCGGUGGCGCGAUAGCGCCAACGUUCUCAACUAUGACACGCAAAACGCUUGCUCCGUUGAAUGGAGUUUAUCAUG [C54U G126U], the “polymerase ribozyme fitness (log ratio)” value worked out at 0.161.

For GGAUCUUCUCGAUCUAACAAAGAAGACAAAUGUGCCACACAGCUUGAGAGCAUCUUCGGAUGCAGAGGCGGCAGCCUUCGGUGACGCGAUAGCGCCAACGUUCUCAACUAUGACACGCAAAACGCGUGCUCCGUUGAAUGGAGUUUAUCAUG [A22G C32G A40C G84A], the “polymerase ribozyme fitness (log ratio)” value was -4.13.

Consider GGAACGUCUCGAUCUAACAAAAAAGACAAAUCUGCCACAAAGCUUGAGAGCAUCUUCGGAUGCAGACGCGGCAGCCUUCGGAGGCGCGAUAGCGCCAACGUUCUCAACUAUGACACGCAAAACGCGUGCGCCGUUGAAUGGACUUUAUCAUG [U4A U6G G67C U82A U130G G143C], for which the “polymerase ribozyme fitness (log ratio)” value is at most -4.2.

As for GGAUCUUCUCGAUCUAACAAAAAAGACAAAUCUGCCACAAAGUUUGAGAGCAUCUUCGGAUGCAGAGGCGACAGCCUUCGGAGGCGCGAUAGCGACUACGUUAUCAACUAUGACACGCAAAACGCAUGCUCCGUUGAAUGGAGUUUAUUAUG [C43U G71A U82A C95A A97U C103A G126A C149U], the “polymerase ribozyme fitness (log ratio)” value is at most -4.2.

Regarding GGAUCUUCUCGAUCUAACAAAAAAGACAAAUCUGCCAUAAAGCUUGAGAGCAUCUUCGGAUGCAGAGGCGGCAGCCUUCGGUGGCGCGAUAGCGACAACGUUCUCAACUAUGACACGCAGAACGCGUGCUCCGUUGAAUGCAGUUUAUCAUG [C38U C95A A120G G141C], the “polymerase ribozyme fitness (log ratio)” value is -1.16.
